# Reference: publication PMC12105186 (Cell Communication and Signaling : CCS, 2025)
# Several values for one entry are separate records, joined by “and”; a condition that tells them apart may be missing. Identical values can stand only once.
# B1: full-length human retinoid X receptor γ (hRXRγ) (receptor, UniProt P48443 1-463, looked up)
# chain: MYGNYSHFMKFPAGYGGSPGHTGSTSMSPSAALSTGKPMDSHPSYTDTPVSAPRTLSAVGTPLNALGSPYRVITSAMGPPSGALAAPPGINLVAPPSSQLNVVNSVSSSEDIKPLPGLPGIGNMNYPSTSPGSLVKHICAICGDRSSGKHYGVYSCEGCKGFFKRTIRKDLIYTCRDNKDCLIDKRQRNRCQYCRYQKCLVMGMKREAVQEERQRSRERAESEAECATSGHEDMPVERILEAELAVEPKTESYGDMNMENSTNDPVTNICHAADKQLFTLVEWAKRIPHFSDLTLEDQVILLRAGWNELLIASFSHRSVSVQDGILLATGLHVHRSSAHSAGVGSIFDRVLTELVSKMKDMQMDKSELGCLRAIVLFNPDAKGLSNPSEVETLREKVYATLEAYTKQKYPEQPGRFAKLLLRLPALRSIGLKCLEHLFFFKLIGDTPIDTFLMEMLETPLQIT
# B2: deletion mutant of human RXRγ lacking the AB region (ΔABhRXRγ) (domain or fragment, UniProt P48443 128-463, looked up)
# chain: STSPGSLVKHICAICGDRSSGKHYGVYSCEGCKGFFKRTIRKDLIYTCRDNKDCLIDKRQRNRCQYCRYQKCLVMGMKREAVQEERQRSRERAESEAECATSGHEDMPVERILEAELAVEPKTESYGDMNMENSTNDPVTNICHAADKQLFTLVEWAKRIPHFSDLTLEDQVILLRAGWNELLIASFSHRSVSVQDGILLATGLHVHRSSAHSAGVGSIFDRVLTELVSKMKDMQMDKSELGCLRAIVLFNPDAKGLSNPSEVETLREKVYATLEAYTKQKYPEQPGRFAKLLLRLPALRSIGLKCLEHLFFFKLIGDTPIDTFLMEMLETPLQIT
# Legend:
# [1] = target: N-terminally 6×His-tagged AB region of hRXRγ (human); test: MST
# [2] = target: the molecule itself; test: AUC
# [3] = target: the molecule itself; test: SEC-MALS
molecule,measurement,setting,value
deletion mutant of human RXRγ lacking the AB region (ΔABhRXRγ) (from UniProt P48443 128-463) (domain or fragment),Kd,[1],11.1 µM
B1,stoichiometry N,[2],5
B2,stoichiometry N,[2],2 and 6
same,stoichiometry N,[3],4
